Target: T1, 人CD7 (human CD7 on the surface of Jurkat, Molt4, CCRF-CEM and Hut78 cells) (human, UniProt P09564 26-240)
T1 construct: whole, on cells; also called CD7抗原
T1 sequence (looked up): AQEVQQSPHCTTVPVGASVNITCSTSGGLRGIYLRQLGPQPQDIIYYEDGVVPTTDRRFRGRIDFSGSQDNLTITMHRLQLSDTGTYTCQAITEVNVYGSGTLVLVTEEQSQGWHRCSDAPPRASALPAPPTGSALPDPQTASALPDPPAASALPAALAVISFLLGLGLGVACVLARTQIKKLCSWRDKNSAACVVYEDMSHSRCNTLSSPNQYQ
Test: FACS, 0.15μg/100μl antibody on 2×10^5 Jurkat, Molt4, CEM and Hut78 cells (high in human CD7)

binding result: binds
B1: 单克隆抗体HIT7 (CD7-HIT7, mouse anti-human CD7 monoclonal antibody) (antibody, V domains shown)
VH: QVQLQESGPGLVKPSQTVSLTCTVTGISITTGNYRWSWIRQFPGNKLEWIGYIYYSGIITYNPSRTSRTTITRDISKNQFFLEMNSLTAEDTATYYCARERGIYYDSLWYFDVWGAGTTVTVSS
VL: DIVLTQSPASLAVSLGQRATISCRASKSVSASGYSYMHWYQQKPGQPPKLLIYLASNLESGVPARFSGSGSGTDFTLNIHPVEEEDAVTYYCQHSRELPYTFGGGTKLEIKR
notes: also called 本发明单克隆抗体; 鼠抗人CD7单克隆抗体
